Earlier results, collected in article PMC3791513.

Biological target: GPR77 (Homo sapiens) (UniProt Q9P296)
Sequence (Q9P296 whole entry): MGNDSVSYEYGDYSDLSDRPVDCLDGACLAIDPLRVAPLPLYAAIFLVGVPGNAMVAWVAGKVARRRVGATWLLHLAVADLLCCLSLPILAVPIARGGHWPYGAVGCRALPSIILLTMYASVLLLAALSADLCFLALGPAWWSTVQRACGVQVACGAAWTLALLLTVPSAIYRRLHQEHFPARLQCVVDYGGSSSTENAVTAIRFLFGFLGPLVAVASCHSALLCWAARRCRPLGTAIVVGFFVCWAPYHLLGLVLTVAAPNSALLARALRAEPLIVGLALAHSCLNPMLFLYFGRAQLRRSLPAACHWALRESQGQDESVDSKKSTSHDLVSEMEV

Sequence of complement anaphylatoxin C5a C5a (P01031 675-754): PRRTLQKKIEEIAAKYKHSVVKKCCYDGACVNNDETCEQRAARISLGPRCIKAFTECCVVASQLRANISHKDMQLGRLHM

Substance: complement anaphylatoxin C5a C5a (from UniProt P01031)
- Kd: 2.5 nM
